Paper PMC10716122

B1: Cyclic GMP-AMP synthase (cGAS), wild type, expressed in human cells [human] / TRIM41, HA-tagged [human] (parent)
chain 1: MQPWHGKAMQRASEAGATAPKASARNARGAPMDPTESPAAPEAALPKAGKFGPARKSGSRQKKSAPDTQERPPVRATGARAKKAPQRAQDTQPSDATSAPGAEGLEPPAAREPALSRAGSCRQRGARCSTKPRPPPGPWDVPSPGLPVSAPILVRRDAAPGASKLRAVLEKLKLSRDDISTAAGMVKGVVDHLLLRLKCDSAFRGVGLLNTGSYYEHVKISAPNEFDVMFKLEVPRIQLEEYSNTRAYYFVKFKRNPKENPLSQFLEGEILSASKMLSKFRKIIKEEINDIKDTDVIMKRKRGGSPAVTLLISEKISVDITLALESKSSWPASTQEGLRIQNWLSAKVRKQLRLKPFYLVPKHAKEGNGFQEETWRLSFSHIEKEILNNHGKSKTCCENKEEKCCRKDCLKLMKYLLEQLKERFKDKKHLDKFSSYHVKTAFFHVCTQNPQDSQWDRKDLGLCFDNCVTYFLQCLRTEKLENYFIPEFNLFSSNLIDKRSKEFLTKQIEYERNNEFPVFDEF
chain 2: MAAVAMTPNPVQTLQEEAVCAICLDYFTDPVSIGCGHNFCRVCVTQLWGGEDEEDRDELDREEEEEDGEEEEVEAVGAGAGWDTPMRDEDYEGDMEEEVEEEEEGVFWTSGMSRSSWDNMDYVWEEEDEEEDLDYYLGDMEEEDLRGEDEEDEEEVLEEVEEEDLDPVTPLPPPPAPRRCFTCPQCRKSFPRRSFRPNLQLANMVQVIRQMHPTPGRGSRVTDQGICPKHQEALKLFCEVDEEAICVVCRESRSHKQHSVVPLEEVVQEYKAKLQGHVEPLRKHLEAVQKMKAKEERRVTELKSQMKSELAAVASEFGRLTRFLAEEQAGLERRLREMHEAQLGRAGAAASRLAEQAAQLSRLLAEAQERSQQGGLRLLQDIKETFNRCEEVQLQPPEVWSPDPCQPHSHDFLTDAIVRKMSRMFCQAARVDLTLDPDTAHPALMLSPDRRGVRLAERRQEVADHPKRFSADCCVLGAQGFRSGRHYWEVEVGGRRGWAVGAARESTHHKEKVGPGGSSVGSGDASSSRHHHRRRRLHLPQQPLLQREVWCVGTNGKRYQAQSSTEQTLLSPSEKPRRFGVYLDYEAGRLGFYNAETLAHVHTFSAAFLGERVFPFFRVLSKGTRIKLCP

Variants of: B1
Experiment: co-IP (IP: GFP, blot cGAS-HA), band intensity printed under blot
Settings: with TRIM41, HA-tagged [human]; HEK293T cells; TRIM41-GFP co-expressed; 100 μg/mL etoposide for 4 h; parent: 1

Row | ratio to parent | Variant
1 | 0.68 | chain 1 MQPWHGKAMQRASEAGATAPKASARNARGAPMDPTESPAAPEAALPKAGKFGPARKSGSRQKKSAPDTQERPPVRATGARAKKAPQRAQDTQPSDATSAPGAEGLEPPAAREPALSRAGACRQRGARCSTKPRPPPGPWDVPSPGLPVSAPILVRRDAAPGASKLRAVLEKLKLSRDDISTAAGMVKGVVDHLLLRLKCDSAFRGVGLLNTGSYYEHVKISAPNEFDVMFKLEVPRIQLEEYSNTRAYYFVKFKRNPKENPLSQFLEGEILSASKMLSKFRKIIKEEINDIKDTDVIMKRKRGGSPAVTLLISEKISVDITLALESKSSWPASTQEGLRIQNWLSAKVRKQLRLKPFYLVPKHAKEGNGFQEETWRLSFSHIEKEILNNHGKSKTCCENKEEKCCRKDCLKLMKYLLEQLKERFKDKKHLDKFSSYHVKTAFFHVCTQNPQDSQWDRKDLGLCFDNCVTYFLQCLRTEKLENYFIPEFNLFSSNLIDKRSKEFLTKQIEYERNNEFPVFDEF [chain 1 S120A]
2 | 0.51 | chain 1 S305A
